Test results from IntAct's records for PubMed 28424519.

Molecular target: snf2_yeast SNF2 (UniProt P22082)
Sequence of UniProt P22082 (P22082 whole entry): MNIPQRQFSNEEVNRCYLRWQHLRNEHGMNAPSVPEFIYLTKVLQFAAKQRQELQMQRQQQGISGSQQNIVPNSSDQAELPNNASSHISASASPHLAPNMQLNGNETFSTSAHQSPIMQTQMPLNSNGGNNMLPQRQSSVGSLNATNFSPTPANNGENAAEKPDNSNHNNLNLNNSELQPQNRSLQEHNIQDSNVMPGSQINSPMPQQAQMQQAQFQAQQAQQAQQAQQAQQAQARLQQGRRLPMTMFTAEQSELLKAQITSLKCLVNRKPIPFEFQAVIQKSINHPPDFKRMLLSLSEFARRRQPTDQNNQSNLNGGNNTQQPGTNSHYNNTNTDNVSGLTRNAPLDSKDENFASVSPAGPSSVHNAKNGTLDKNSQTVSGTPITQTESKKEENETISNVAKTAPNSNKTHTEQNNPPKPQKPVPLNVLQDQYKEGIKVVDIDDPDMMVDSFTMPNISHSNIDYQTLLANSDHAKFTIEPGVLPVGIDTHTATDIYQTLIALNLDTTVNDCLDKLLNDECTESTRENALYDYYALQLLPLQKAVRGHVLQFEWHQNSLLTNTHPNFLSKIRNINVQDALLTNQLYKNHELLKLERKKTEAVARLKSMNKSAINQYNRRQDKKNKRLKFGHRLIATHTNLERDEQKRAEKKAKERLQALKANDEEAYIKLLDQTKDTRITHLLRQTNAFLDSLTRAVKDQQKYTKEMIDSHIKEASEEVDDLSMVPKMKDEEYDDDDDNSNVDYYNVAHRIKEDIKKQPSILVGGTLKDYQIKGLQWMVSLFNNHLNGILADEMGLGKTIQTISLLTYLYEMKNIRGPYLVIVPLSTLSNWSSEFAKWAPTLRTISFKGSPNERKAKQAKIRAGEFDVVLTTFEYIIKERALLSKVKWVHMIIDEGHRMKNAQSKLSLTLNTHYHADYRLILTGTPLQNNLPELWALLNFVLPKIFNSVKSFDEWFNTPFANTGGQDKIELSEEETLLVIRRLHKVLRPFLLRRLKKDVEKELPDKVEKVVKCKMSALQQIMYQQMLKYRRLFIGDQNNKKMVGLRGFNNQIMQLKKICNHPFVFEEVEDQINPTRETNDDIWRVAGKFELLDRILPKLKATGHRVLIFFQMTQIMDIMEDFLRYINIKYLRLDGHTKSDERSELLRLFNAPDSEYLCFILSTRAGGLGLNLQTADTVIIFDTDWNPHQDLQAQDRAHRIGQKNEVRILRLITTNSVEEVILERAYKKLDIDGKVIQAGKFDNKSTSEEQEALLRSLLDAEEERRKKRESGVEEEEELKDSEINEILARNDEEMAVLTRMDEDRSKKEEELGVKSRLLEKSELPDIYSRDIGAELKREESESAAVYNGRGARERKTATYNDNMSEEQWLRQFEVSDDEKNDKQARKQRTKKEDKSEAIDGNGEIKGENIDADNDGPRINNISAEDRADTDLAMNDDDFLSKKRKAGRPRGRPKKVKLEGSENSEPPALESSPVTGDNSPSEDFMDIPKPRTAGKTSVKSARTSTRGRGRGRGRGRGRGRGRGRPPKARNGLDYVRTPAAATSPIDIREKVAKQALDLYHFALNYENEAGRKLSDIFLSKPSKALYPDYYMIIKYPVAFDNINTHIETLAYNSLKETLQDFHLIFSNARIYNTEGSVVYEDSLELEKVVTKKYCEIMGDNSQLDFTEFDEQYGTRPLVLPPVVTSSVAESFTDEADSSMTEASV

effect of a mutation on the interaction	Substance
decreasing interaction	Histone H4 (Saccharomyces cerevisiae) (from UniProt P02309) K17A
decreasing interaction	Histone H4 (Saccharomyces cerevisiae) (from UniProt P02309) K17A;R18A;R20A
decreasing interaction	Histone H4 (Saccharomyces cerevisiae) (from UniProt P02309) R18A
decreasing interaction	Histone H4 (Saccharomyces cerevisiae) (from UniProt P02309) R20A
